± gives the uncertainty stated by the source.
Test: self-splicing fitness, log relative to wild type (ln ratio); higher = more splicing; Tetrahymena group I intron in knt gene, E. coli kanamycin selection, DiMSum; sequences stand for … in CUCUCU…GGAGGGAAAAGUUAUCAGGCAUGCACCUGGUAGCUAGUCUUUAAACCAAUAGAUUGCAUCGGUUUAAAAGGCAAGACCGUCAAAUUGCGGGAAAGGGGUCAACAGCCGUUCAGUACCAAGUCUCAGGGGAAACUUUGAGAUGGCCUUGCAAAGGGUAUGGUAAUAAGCUGACGGACAUGGUCCUAACCACGCAGCCAAGUCCUAAGUCAACAGAUCUUCUGUUGAUAUGGAUGCAGUUCACAGACUAAAUGUCGGUCGGGGAAGAUGUAUUCUUCUCAUAAGAUAUAGUCGGACCUCUCCUUAAUGGGAGCUAGCGGAUGAAGUGAUGCAACACUGGAGCCGCUGGGAACUAAUUUGUAUGCGAAAGUAUAUUGAUUAGUUUUGGAGUACUCGUGGUCG
Method in brief: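 Library with all eight P1ex-region intron nucleotides randomised, intron inside the knt kanamycin-resistance gene on pET-22b(+), in E. coli BL21(DE3). Cells grew overnight at 37°C or 30°C on LB agar with or without 25 μg/mL kanamycin (plus 100 μg/mL carbenicillin, 50 μM IPTG, 0.2% rhamnose), in six replicate transformations. Pooled colonies were amplicon-sequenced on Illumina HiSeq 2500. DiMSum fitness is the error-weighted combination of wild-type-normalised replicate fold changes, kanamycin versus none.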

ACGGAGCAAUAUUACGUCUA
self-splicing fitness (ln) (30 °C): -3.96 ± 0.46 | self-splicing fitness (ln) (37 °C): -1.3 ± 0.16

UGUAAGCAAUAUUACGGCGU
self-splicing fitness (ln) (30 °C): -0.483 ± 0.1 | self-splicing fitness (ln) (37 °C): -0.397 ± 0.12

UCCUAGCAAUAUUACGGUGA
self-splicing fitness (ln) (30 °C): -0.297 ± 0.053 | self-splicing fitness (ln) (37 °C): 0.225 ± 0.067

CAUAAGCAAUAUUACGCCGG
self-splicing fitness (ln) (30 °C): -0.252 ± 0.13 | self-splicing fitness (ln) (37 °C): -0.546 ± 0.2

CACCAGCAAUAUUACGAUGC
self-splicing fitness (ln) (30 °C): -2.96 ± 0.13 | self-splicing fitness (ln) (37 °C): -2.06 ± 0.14

AGGAAGCAAUAUUACGAUGC
self-splicing fitness (ln) (30 °C): -2.26 ± 0.17 | self-splicing fitness (ln) (37 °C): -1.04 ± 0.22

CUAGAGCAAUAUUACGCGGG
self-splicing fitness (ln) (30 °C): -2.91 ± 0.22 | self-splicing fitness (ln) (37 °C): 0.316 ± 0.14

AUGUAGCAAUAUUACGAGCA
self-splicing fitness (ln) (30 °C): -1.07 ± 0.11 | self-splicing fitness (ln) (37 °C): -1.07 ± 0.12

CACAAGCAAUAUUACGUAAU
self-splicing fitness (ln) (30 °C): -3.79 ± 0.14 | self-splicing fitness (ln) (37 °C): -1.65 ± 0.1

UAAUAGCAAUAUUACGCAAA
self-splicing fitness (ln) (30 °C): -2.03 ± 0.18 | self-splicing fitness (ln) (37 °C): -1.27 ± 0.15

CAGAAGCAAUAUUACGGGUC
self-splicing fitness (ln) (30 °C): -3.4 ± 0.29 | self-splicing fitness (ln) (37 °C): -2.55 ± 0.2

GAUUAGCAAUAUUACGGUCC
self-splicing fitness (ln) (30 °C): -3.27 ± 0.39

GCGAAGCAAUAUUACGAGUU
self-splicing fitness (ln) (30 °C): -3.19 ± 0.2 | self-splicing fitness (ln) (37 °C): -2.16 ± 0.28

GGUGAGCAAUAUUACGGUAU
self-splicing fitness (ln) (30 °C): -3.49 ± 0.23 | self-splicing fitness (ln) (37 °C): -3 ± 0.4

ACCCAGCAAUAUUACGUGAG
self-splicing fitness (ln) (30 °C): -0.151 ± 0.037 | self-splicing fitness (ln) (37 °C): -0.0922 ± 0.054

CGAGAGCAAUAUUACGUCAA
self-splicing fitness (ln) (30 °C): -3.22 ± 0.21 | self-splicing fitness (ln) (37 °C): -2.4 ± 0.27

UGCUAGCAAUAUUACGCCAG
self-splicing fitness (ln) (37 °C): -2.17 ± 0.39

UGAUAGCAAUAUUACGCGGU
self-splicing fitness (ln) (30 °C): -3.34 ± 0.27 | self-splicing fitness (ln) (37 °C): -1.99 ± 0.22

ACGCAGCAAUAUUACGCCUG
self-splicing fitness (ln) (30 °C): -2.79 ± 0.2 | self-splicing fitness (ln) (37 °C): -2.42 ± 0.33

GCGUAGCAAUAUUACGACUC
self-splicing fitness (ln) (30 °C): 0.552 ± 0.19 | self-splicing fitness (ln) (37 °C): -0.215 ± 0.26

AGCCAGCAAUAUUACGUAGA
self-splicing fitness (ln) (30 °C): -2.62 ± 0.1 | self-splicing fitness (ln) (37 °C): -1.84 ± 0.15

CCGUAGCAAUAUUACGAGGG
self-splicing fitness (ln) (30 °C): -3.25 ± 0.18 | self-splicing fitness (ln) (37 °C): -0.352 ± 0.17

UCGGAGCAAUAUUACGGAAG
self-splicing fitness (ln) (37 °C): -0.371 ± 0.41

ACCCAGCAAUAUUACGGAAA
self-splicing fitness (ln) (30 °C): -0.977 ± 0.083 | self-splicing fitness (ln) (37 °C): -0.213 ± 0.083

CGAAAGCAAUAUUACGCAGG
self-splicing fitness (ln) (30 °C): -2.16 ± 0.091 | self-splicing fitness (ln) (37 °C): -1.4 ± 0.093

AACCAGCAAUAUUACGGCGA
self-splicing fitness (ln) (30 °C): -0.304 ± 0.075 | self-splicing fitness (ln) (37 °C): 0.19 ± 0.11

UUGGAGCAAUAUUACGUGAA
self-splicing fitness (ln) (30 °C): -2.62 ± 0.21 | self-splicing fitness (ln) (37 °C): -1.27 ± 0.2

GGCUAGCAAUAUUACGGAGA
self-splicing fitness (ln) (30 °C): -3.65 ± 0.37

UGGGAGCAAUAUUACGACUU
self-splicing fitness (ln) (30 °C): -2.15 ± 0.091 | self-splicing fitness (ln) (37 °C): -0.921 ± 0.11

GCAGAGCAAUAUUACGAGCA
self-splicing fitness (ln) (30 °C): -2.32 ± 0.24 | self-splicing fitness (ln) (37 °C): -2.4 ± 0.34

GGCCAGCAAUAUUACGGCCU
self-splicing fitness (ln) (30 °C): -3.58 ± 0.23 | self-splicing fitness (ln) (37 °C): -2.42 ± 0.27

CUGUAGCAAUAUUACGGCGU
self-splicing fitness (ln) (30 °C): -3.75 ± 0.33 | self-splicing fitness (ln) (37 °C): -2.2 ± 0.33

AUCAAGCAAUAUUACGAUGC
self-splicing fitness (ln) (30 °C): -2.01 ± 0.19 | self-splicing fitness (ln) (37 °C): -1.1 ± 0.23

GUCGAGCAAUAUUACGCUGU
self-splicing fitness (ln) (30 °C): -1.73 ± 0.13 | self-splicing fitness (ln) (37 °C): -1.62 ± 0.2

GUCUAGCAAUAUUACGUUGC
self-splicing fitness (ln) (30 °C): -2.55 ± 0.42 | self-splicing fitness (ln) (37 °C): -0.754 ± 0.41

GUAAAGCAAUAUUACGCGUU
self-splicing fitness (ln) (30 °C): -1.65 ± 0.088 | self-splicing fitness (ln) (37 °C): -0.906 ± 0.099

ACAAAGCAAUAUUACGUUAA
self-splicing fitness (ln) (30 °C): -2.91 ± 0.17 | self-splicing fitness (ln) (37 °C): -1.32 ± 0.12

ACGUAGCAAUAUUACGUGGC
self-splicing fitness (ln) (30 °C): -2.94 ± 0.17 | self-splicing fitness (ln) (37 °C): -2.98 ± 0.26

UCACAGCAAUAUUACGUCAC
self-splicing fitness (ln) (30 °C): -3.17 ± 0.18 | self-splicing fitness (ln) (37 °C): -1.64 ± 0.13

From the supplement of paper PMC7877785
